Measured values as given in article PMC12091997.

Key:
[1] = biological target: His6-tagged human GBP1 C589S (CaaX box mutant) (human) (UniProt P32455); experiment: SEC; Superdex 200 10/300 GL on AKTA FPLC; 100 ug protein; 20 mM Tris (7.5), 140 mM NaCl, 2 mM MgCl2 with 200 uM GDP-AlF4- (transition state analogue); monomer to dimer
[2] = biological target: tag-free recombinant human GBP1, farnesylated (human) (UniProt P32455); experiment: cryo-EM structure; cryo-electron tomography (300 kV) with sub-tomogram averaging of tag-free GBP1 coat assembled on Stm ΔwaaG::pBAD-ftsZ OMVs/minicells in the presence of GTP; 12,858 particles; dimer mask and monomer mask

stoichiometry N [1] | stoichiometry N [2] | Substance
2 |  | His6-tagged human GBP1 C589S (CaaX box mutant) (from UniProt P32455 1-592) (natural protein)
 | 2 | tag-free recombinant human GBP1, farnesylated (from UniProt P32455 1-592) (natural protein)
